This is an account of results in PMC6953191, “OsNAC2 integrates auxin and cytokinin pathways to modulate rice root development”.

Series [1] concerns the target T1, OsNAC2 (Oryza sativa L. (rice), UniProt Q7XUV6 1-343).
T1 sequence: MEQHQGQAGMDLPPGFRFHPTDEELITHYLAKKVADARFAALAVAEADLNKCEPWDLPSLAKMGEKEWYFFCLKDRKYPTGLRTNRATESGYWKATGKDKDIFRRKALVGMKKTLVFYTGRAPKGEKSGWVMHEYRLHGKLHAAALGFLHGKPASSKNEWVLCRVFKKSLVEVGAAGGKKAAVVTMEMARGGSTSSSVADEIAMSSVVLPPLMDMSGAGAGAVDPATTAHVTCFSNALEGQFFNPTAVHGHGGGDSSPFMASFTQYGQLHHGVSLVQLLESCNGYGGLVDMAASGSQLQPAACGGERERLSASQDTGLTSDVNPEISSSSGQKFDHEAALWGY
Nature of the series: EMSA; increasing OsNAC2; 2.5 mM MgCl2; salmon sperm DNA; 50 mM Tris-HCl pH 8.0, 100 mM KCl, 2.5 mM MgCl2, 0.2 mM DTT, 2 ug salmon sperm DNA, 10% glycerol, 20 uL, 25 C 20 min; probe printed as 200 nmol; 10% PAGE, 0.5x. To be noted: protein: recombinant; tags: pET-28a vector tag (BamHI/XhoI); chain copies: 2; label: FAM; blunt. A general note: Mobility shift assays separate free from complexed probe on a gel.

Series [2] addresses T1, OsNAC2. Put plainly: competition EMSA; unlabelled probe weakened binding of FAM probe N1; 50 mM Tris-HCl pH 8.0, 100 mM KCl, 2.5 mM MgCl2, 0.2 mM DTT, 2 ug salmon sperm DNA, 10% glycerol, 20 uL, 25 C 20 min; probe printed as 200 nmol; 10% PAGE, 0.5x. To be noted: protein: recombinant; tags: pET-28a vector tag (BamHI/XhoI); chain copies: 2; blunt.

B1: OsCKX4 promoter-derived 3x CGGCCACGCA probe (dsDNA)
DNA 1: CGGCCACGCACGGCCACGCACGGCCACGCA
DNA 2: TGCGTGGCCGTGCGTGGCCGTGCGTGGCCG
B1: in series [1], the binding result was “binds”.

B2: unlabelled 3x CGGCCACGCA competitor (dsDNA)
DNA 1: CGGCCACGCACGGCCACGCACGGCCACGCA
DNA 2: TGCGTGGCCGTGCGTGGCCGTGCGTGGCCG
Consider B2, for which the binding result in series [2] is reported as “binds”.
